Data on 13 sequences can be found in the DeepSol protein solubility set.

The series can be described thus: soluble on expression in E. coli; label from the status in PepcDB or PDB records.
Regarding “MSAASEAVSGALFQHLFRIFSLFADQNEKGTFKPAQAEFLIDELLRELRRQTTPKVHDLPENVTFNEFLNLLQVIFPDREDLLIATNRVFERYVNHVIGKGFVLFRKLSQKRGCLPFKRRTEDWQFGWLQVLPGVAEIRKQNSDIDDIIQFDEDTVIEPPVIDEDASVWSVICNSTTAFQFSHLDPIMAQLFVKGFLTYWKLNLKYFFSDMRSARDFPTREELAVFDYKRSLKSRPTKEGKSRKELETERCRLESELEEEKKNRKDEEIVRGLTTRLLKQEMEKSEQMQQVIYELRSKLDNGENEAGVDDEDIVDVEMIEDEISEDVGENEEISITLPSREEKIQQYAYHLYATQAEEHVTSDDEEIWKQNYNLIVSTHFTDTMWKSCKPIVYCSEIVSQIVNQSPFIFLINLNNDLHNRATLGLTTYLVSYRFPCSFFLIELKMTKLRVGFIGYGHLGKFLVEKLRLLPEEFEIVKIWNRSVGEPGVQGLETLTAENLKDIDLVVEVAHPKIIADYGELILEHCDLFAGSPTCFANQELLEKLTKLSLSHGKKLLIPAGALWGANDIQKMADVGSLKGLTVTMIKHPTSFKLGSPLFEINEKAKLEETNETVLYEGSVRGLCPLAPNNVNTMAGGALAASNLGFDEVKAKLISDPKMTDWHVVEVRVEGDDGFEVITRRNNPAKPGAVTGQLTYYSFLSSIKESRYKPIGVQLC”, the “soluble on expression in E. coli” value is recorded as “not soluble”.

Take “MSKLEAILSQEVEAEIQALLQEAEAKAEAVKREAEEKAKALLQARERALEAQYRAALRRAESAGELLVATARTQARGEVLEEVRRRVREALEALPQKPEWPEVVRKLALEALEALPGAKALVANPEDLPHLEAMARERGVELQAEPALRLGVRAVGAEGKTQVENSLLARMDRAWDAMSSKVAQALWG”: the “soluble on expression in E. coli” value was “soluble”.

In the case of “MHHHHHHGKPIPNPLLGLDSTENLYFQGIDPFTEFMDSTDLFDVFEETPVELPTDSNGEKNADTNVGDTPDHTQDKKHGLEEEKEEHEENNSENKKIKSNKSKTEDKNKKVVVPVLADSFEQEASREVDASKGLTNSETLQVEQDGKVRLSHQVRHQVALPPNYDYTPIAEHKRVNEARTYPFTLDPFQDTAISCIDRGESVLVSAHTSAGKTVVAEYAIAQSLKNKQRVIYTSPIKALSNQKYRELLAEFGDVGLMTGDITINPDAGCLVMTTEILRSMLYRGSEVMREVAWVIFDEVHYMRDKERGVVWEETIILLPDKVRYVFLSATIPNAMEFAEWICKIHSQPCHIVYTNFRPTPLQHYLFPAHGDGIYLVVDEKSTFREENFQKAMASISNQIGDDPNSTDSRGKKGQTYKGGSAKGDAKGDIYKIVKMIWKKKYNPVIVFSFSKRDCEELALKMSKLDFNSDDEKEALTKIFNNAIALLPETDRELPQIKHILPLLRRGIGIHHSGLLPILKEVIEILFQEGFLKVLFATETFSIGLNMPAKTVVFTSVRKWDGQQFRWVSGGEYIQMSGRAGRRGLDDRGIVIMMIDEKMEPQVAKGMVKGQADRLDSAFHLGYNMILNLMRVEGISPEFMLEHSFFQFQNVISVPVMEKKLAELKKDFDGIEVEDEENVKEYHEIEQAIKGYREDVRQVVTHPANALSFLQPGRLVEISVNGKDNYGWGAVVDFAKRINKRNPSAVYTDHESYIVNVVVNTMYIDSPVNLLKPFNPTLPEGIRPAEEGEKSICAVIPITLDSIKSIGNLRLYMPKDIRASGQKETVGKSLREVNRRFPDGIPVLDPVKNMKIEDEDFLKLMKKIDVLNTKLSSNPLTNSMRLEELYGKYSRKHDLHEDMKQLKRKISESQAVIQLDDLRRRKRVLRRLGFCTPNDIIELKGRVACEISSGDELLLTELIFNGNFNELKPEQAAALLSCFAFQERCKEAPRLKPELAEPLKAMREIAAKIAKIMKDSKIEVVEKDYVESFRHELMEVVYEWCRGATFTQICKMTDVYEGSLIRMFKRLEELVKELVDVANTIGNSSLKEKMEAVLKLIHRDIVSAGSLYL”, the “soluble on expression in E. coli” value is “soluble”.

Regarding “MVEEMNNEVTEMKSFSVGDVVSGKVTKVEDKQAFVDVGFKVDGIIPISELSSLHVEKVSDVLSEGDELELKVLKVEDDELILSKRAVQAEKAWETLQAALDSGEVIEAEVADVVKGGLVVDLGVRGFIPASLVERHYVEDFSDYKGRTLRLKVVELDKEANKLILSQRAVLDEEVEAKKKEVLASLQPGDVVEGTVQRLTDFGAFVDVGGVDGLVHISQLAHHRVETPAEVVKEGDAVKVKVLSVDPDSERVSLSIKETLPGPWEQVEGTIQPGDVIEGTVKRLVSFGAFVEVAPGVEGLVHISQIANRHIGTPGEVLSEGERVQAKVLDVNISEKRISLSIRELLDDAGSNQSDREVYESTNEESSGFSLGDMIGDELKKYKLEHHHHHH”, the “soluble on expression in E. coli” value is given as “soluble”.

As to “MTTGNLQVAIYGFTARSRAFEPAGICYETRLIRDKLTLGHCTLPIYKNSPVAKPVTEQQRKKSSEEPAELRKDLFDADNEKYEKYLMKLDPNDCKNQDHYKVLGLSKLRWQATSDEIRFCYRQKVLKHHPDKKKHRGIVMEKEEYFTCITKAYEQVGMSDVKRQAFDSVDHKFNDIIPNEKSINHNNFYNELAPVFQLNSRWSNIKPVPELGKSDATREDVENFYDFWFNFQSWREFSYLDEEDKERGEDRYERREMEKQNKAERERRRKEEAKRIRKLVDIAYAKDPRIIKFKKEQQAKKDKAKEDKQRAIREKQEAIDREKREKEEAEAKQKEEADRKAKEEREREKKERDIAKKAMSQQRKRLKKLADEAGHWTENPRDKLTEMERIERICIGFTVDQLRELCEKVESLSIASEIQTALTDAEILKKEAAGAKVTITEDKNKENEKQADKETWTSEEIQLLVKASNTFPPGTVERWVQIADYINEHRKDSTGLPPKTEKQVIKQCKAVQTMNVKLPSTTQNQLGTALPDEDVWSATEQKTLEDAIKKHKSSDPERWEKISTEVGTKSKKACIRRFKYLVQMVKNKK”, the “soluble on expression in E. coli” value is “not soluble”.

Turning to “MIPLFNFAIKQFMNQRMKNIRGFMEHPIETQQRVLKNLLQQAALTEWGKTHGYKDIQSNEQFAQQVPVSTYETFYPWIERCLKGEQQILWQSDIDWFSKSSGTTNAKSKFIPVSKESLKDCHYKGGMDLLTLYFDNAPESKLFQGKSLAVGGSCSPNPHRDNSKIGDISAVIMANLPTWAQYARTPSIQTALMNEWEAKIDKLAEECSKENVTNLSGVPTWAVLLLEYMLEKSGKENMLEIWPHFECFFHGAVSFHPYKTAFQKFFPSDKVRYMETYNASEGFFGVQDDLSRDDLLLYLDHGIYYEFIPIDEIDAEFPKTISLEQVQLNEAYALVISTNSGLWRYNVGDVVRFTSITPYRIKITGRTKHYINVFGEELMVENAEMAVSKACEATNAVLANFTAGPIYFNNENKGGHEWIIEFETAPGDKDRFTQLLDQFLKELNSDYEAKRYKDMALLLPTIHFVPEGTFYKWLKLKGKLGGQHKVPRLSNNREYLEDILTKCL”, the “soluble on expression in E. coli” value is “not soluble”.

With “MIDLRKLTEVQRRLSRKIVEKPIDIAKVKRVGAVDVSYKNNFAKAAFVCVEFPSGEIIKTKTIVTTVEFPYIPTFFFLRETKPILLAVKDENFDVLLVEGHGKAHPRRYGLASHIGVILSKPTIGVAKRLLRGVSKDTYVKVGKAFVSVGNLITLNDAVRIVEKLLDENGYPKPLNIADKLSKRGESREKELEHHHHHH”, the “soluble on expression in E. coli” value is on record as “not soluble”.

Take “MATQARLPLPVGSTTSVSVVIPAKNVAAYVGETLASALAQGEVTEVIVVDDGSTDNTIAIVRAIRDPRLRLMTNDSAGVSAARNLGARHASGEWLLFLDADDRLRPGAVAALLAAARGAPRAVLVYGDYNTIDSEGRQVGRRDLLKGRRKPSGDVLTRLAASNFIVNGGIALARAEAFRAIGGFDTSLRYCEDWHCWCRLAAIGEFEFAPKLLLDYRLHTANTMNAAVRTPQDFFPAIARVFDDGLILARLPEGTAARLRQAAEIHLVTYSAMQAVRFGRYRQAFTYLGMVGRRSLKSLPRSALRVALACFGILEHHHHHH”: the “soluble on expression in E. coli” value is on record as “not soluble”.

Consider “MGSDKIHHHHHHVKTNLEHWVTLQEKGYFENHPFYQERQVNDDAARVEKATPLTKDMKIAIIGCGYGRESASFCRRVRKVYGIDVSWTILAKALERMLADNHVNFTPVLASQWKTILPDGGLDLVYSVVVFQHLTRDLVDDYIGGLKGKLRPGGRFYVQFCDSDTGEADADLRFYEPNVRWTEDDIRILARRHGLDLLSLDSERVTPTASWHWALMEKADDR”, for which the “soluble on expression in E. coli” value is given as “not soluble”.

For “MGSDKIHHHHHHAKSEMAFAGKGEISPRAITMWDFSWLERRWPGAGYEDWDQVLDELSERGYNAIRIDAYPHLIAENPMKKWLLKEVWNQQDWGSPDMNEVQVQPNLNLFLSKCKERDIKVGLSSWYRLDVDEVCLKLDTPEKLADCWLTILRSIEEDGLLDTILYVDLCNEWPGDSWAPFFAKTYPNVGWGNWYKEESLRWMKTSLEKMRQVYPDMPFLYSFDHGDVKKYEEVDCSFLDLYEHHIWMAQQNGGEFYKLVGYGYNRFLPDDYKNVVKNAERVYRERPGYWQKLLTDKIELMASVARKNRRPLVTTECWGLVDYKDWPLLKWDWVKDLCELGTITAARTGMWVGVATSNFCGPQFAGMWRDVEWHKRLTSIIRSSPLDESLTKNNEVAAKLLKRL”, the “soluble on expression in E. coli” value was “not soluble”.

Turning to “MSHIRVAFAPLDTNPSTCGLETFATQIETLSQMMTAEEMKAELYDCVRRILREQKFDQIRENEAMLRLYKVMGRSSTNLKGRGIYEQLFKKDHFTGSLKFYLQWAEECGKDQMLEEFKDVLKLARDRLSERIEMTAIESGFRDLVDEYFNGESGDMFTRPDETMDLFRFNAGSKKKRRSSVCFLQHNVPINNSGKAAFGPKTKTDLRQACIDRPNYHGISIEEFRFAKWKDTFGEDVDDDYRKRKDSGVVFVKHQVIDTDRQAREEVENRFNANLNPRRRHLSPVSEKTVDDEEEKRSRIYSPLVATKDAHRPALRSKIENPPATVTLSSDTKSASEKDVSDSDDADDDERLKIMTAGRKDGNPPDRSTSISSNYSTASARTSKSGAGLDLMAENKCLEAHAMFSDTVHLASEKTMVLGDDSVFVPERSLATTQIVTDFSVLCDPDPTMTITQERPKKVSNGLNVVYDEAAEPEESQKVEESEVQPEIVLVSPVTQTSPATMFNDIYDDEIEFGFFKPSRGNFVTSTPAQGVHLVNIDEYFGNKEEESTHEQEAPVFVAPTSSTFSKLTRRKSLAANQAVQPSVTESSKPERSDPKDSSIDCLTANLGRRLSIGADEIPNLTENNESEITGCKIRRRSEIIKQGDINPWDETLRKKLMCLVRPPQNMHEFQERAPKIQALRDCEVSGEKLHIQTLIGQGGYAKVYRAVTDDQRTVAVKYEVPSCSWEVYICDQMRNRLKDRGLELMAKCCIMEVMDAYVYSTASLLVNQYHEYGTLLEYANNMKDPNWHITCFLITQMARVVKEVHASKIIHGDIKPDNFMITRKIDDKWGKDALMSNDSFVIKIIDWGRAIDMMPLKNQRFKGRAGTEAFDCPEMVDGRSWTYQADYFGFAATMAVVVAGKYAQLTGASVGDYSLNVDIKRRNILRDACYDVINRFLNIPSCDSLPDWNILIKSFSEIWNEKFEASGWRQAVSKFNEACDLAANQK”, the “soluble on expression in E. coli” value was “not soluble”.

Regarding “MRGSHHHHHHGSALSNKFIGDDMKMTYHMDGCVNGHYFTVKGEGNGKPYEGTQTSTFKVTMANGGPLAFSFDILSTVFKYGNRCFTAYPTSMPDYFKQAFPDGMSYERTFTYEDGGVATASWEISLKGNCFEHKSTFHGVNFPADGPVMAKKTTGWDPSFEKMTVCDGILKGDVTAFLMLQGGGNYRCQFHTSYKTKKPVTMPPNHVVEHRIARTDLDKGGNSVQLTEHAVAHITSVVPF”, the “soluble on expression in E. coli” value is on record as “soluble”.

Consider “MGSDKIHHHHHHVEGLIFQSSEFGTDEIYANMEEYIMQITRDNYSQYAQMVQQMFGKKASSNDPLAQCDYGNFSLRFKPVDINFTKPNWDTIMTKRDKPAMSEEEFDEAIKELARKEFATGKRDDDAYRKLCMQHGETVSPDRKAIYESSMKKTGGKMNAACMFWDSKGNKTLSYNPESRNWKAISTDEEFARARVFTSIYNDELARLKEEYGEKAKGNVSYSKIKVDISAERSKEKNNNEGNTIDLQI”, for which the “soluble on expression in E. coli” value is listed as “not soluble”.
